Patent US20210244739A1

Target: human protein kinase R (PKR) (human) (UniProt P19525)
Assay: cell-based or functional assay

Chain of UniProt P19525 (P19525 2-551 limits assumed): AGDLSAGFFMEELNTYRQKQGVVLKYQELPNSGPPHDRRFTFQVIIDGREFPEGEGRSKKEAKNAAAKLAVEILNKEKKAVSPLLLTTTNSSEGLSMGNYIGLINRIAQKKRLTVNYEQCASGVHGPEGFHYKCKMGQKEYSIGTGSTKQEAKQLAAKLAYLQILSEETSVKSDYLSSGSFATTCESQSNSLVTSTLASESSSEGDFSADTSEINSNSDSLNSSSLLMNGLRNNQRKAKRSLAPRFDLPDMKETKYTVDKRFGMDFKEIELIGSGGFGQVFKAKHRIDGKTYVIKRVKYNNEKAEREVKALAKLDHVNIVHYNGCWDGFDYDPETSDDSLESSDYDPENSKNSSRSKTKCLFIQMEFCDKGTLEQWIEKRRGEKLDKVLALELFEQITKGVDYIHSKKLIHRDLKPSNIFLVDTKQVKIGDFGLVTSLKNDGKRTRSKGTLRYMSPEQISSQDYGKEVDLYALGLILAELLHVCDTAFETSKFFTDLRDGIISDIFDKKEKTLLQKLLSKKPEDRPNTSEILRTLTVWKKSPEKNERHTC

Substance | virus titre increase between 5 hpi and 48 hpi in HeLa cells
sheeppox virus 011 (K3 ortholog) | > 10 fold
taterapox virus 037 (K3 ortholog) | > 10 fold
